Results: US20240043489A1, “Cytokine Prodrugs Comprising a Cleavable Linker” (Trutino Biosciences Inc., priority 2020, published 2024)
Residue numbers refer to the chain shown, from its start. In names and notes the source's numbering stands. Several values for one entry are separate records, joined by “and”; a condition that tells them apart may be missing. Equal entries are not always repeated. Entries after “also recorded” stand apart in the source; their conditions may differ. Where two headings read alike, the source gives them in different places. Each block holds one molecule with its values, some of them ahead of it.

Legend:
[1] = molecular target: fibronectin (Homo sapiens, UniProt P02751); conditions: Note 1, cited from earlier work
Chain of fibronectin (P02751 32-2477, species assumed): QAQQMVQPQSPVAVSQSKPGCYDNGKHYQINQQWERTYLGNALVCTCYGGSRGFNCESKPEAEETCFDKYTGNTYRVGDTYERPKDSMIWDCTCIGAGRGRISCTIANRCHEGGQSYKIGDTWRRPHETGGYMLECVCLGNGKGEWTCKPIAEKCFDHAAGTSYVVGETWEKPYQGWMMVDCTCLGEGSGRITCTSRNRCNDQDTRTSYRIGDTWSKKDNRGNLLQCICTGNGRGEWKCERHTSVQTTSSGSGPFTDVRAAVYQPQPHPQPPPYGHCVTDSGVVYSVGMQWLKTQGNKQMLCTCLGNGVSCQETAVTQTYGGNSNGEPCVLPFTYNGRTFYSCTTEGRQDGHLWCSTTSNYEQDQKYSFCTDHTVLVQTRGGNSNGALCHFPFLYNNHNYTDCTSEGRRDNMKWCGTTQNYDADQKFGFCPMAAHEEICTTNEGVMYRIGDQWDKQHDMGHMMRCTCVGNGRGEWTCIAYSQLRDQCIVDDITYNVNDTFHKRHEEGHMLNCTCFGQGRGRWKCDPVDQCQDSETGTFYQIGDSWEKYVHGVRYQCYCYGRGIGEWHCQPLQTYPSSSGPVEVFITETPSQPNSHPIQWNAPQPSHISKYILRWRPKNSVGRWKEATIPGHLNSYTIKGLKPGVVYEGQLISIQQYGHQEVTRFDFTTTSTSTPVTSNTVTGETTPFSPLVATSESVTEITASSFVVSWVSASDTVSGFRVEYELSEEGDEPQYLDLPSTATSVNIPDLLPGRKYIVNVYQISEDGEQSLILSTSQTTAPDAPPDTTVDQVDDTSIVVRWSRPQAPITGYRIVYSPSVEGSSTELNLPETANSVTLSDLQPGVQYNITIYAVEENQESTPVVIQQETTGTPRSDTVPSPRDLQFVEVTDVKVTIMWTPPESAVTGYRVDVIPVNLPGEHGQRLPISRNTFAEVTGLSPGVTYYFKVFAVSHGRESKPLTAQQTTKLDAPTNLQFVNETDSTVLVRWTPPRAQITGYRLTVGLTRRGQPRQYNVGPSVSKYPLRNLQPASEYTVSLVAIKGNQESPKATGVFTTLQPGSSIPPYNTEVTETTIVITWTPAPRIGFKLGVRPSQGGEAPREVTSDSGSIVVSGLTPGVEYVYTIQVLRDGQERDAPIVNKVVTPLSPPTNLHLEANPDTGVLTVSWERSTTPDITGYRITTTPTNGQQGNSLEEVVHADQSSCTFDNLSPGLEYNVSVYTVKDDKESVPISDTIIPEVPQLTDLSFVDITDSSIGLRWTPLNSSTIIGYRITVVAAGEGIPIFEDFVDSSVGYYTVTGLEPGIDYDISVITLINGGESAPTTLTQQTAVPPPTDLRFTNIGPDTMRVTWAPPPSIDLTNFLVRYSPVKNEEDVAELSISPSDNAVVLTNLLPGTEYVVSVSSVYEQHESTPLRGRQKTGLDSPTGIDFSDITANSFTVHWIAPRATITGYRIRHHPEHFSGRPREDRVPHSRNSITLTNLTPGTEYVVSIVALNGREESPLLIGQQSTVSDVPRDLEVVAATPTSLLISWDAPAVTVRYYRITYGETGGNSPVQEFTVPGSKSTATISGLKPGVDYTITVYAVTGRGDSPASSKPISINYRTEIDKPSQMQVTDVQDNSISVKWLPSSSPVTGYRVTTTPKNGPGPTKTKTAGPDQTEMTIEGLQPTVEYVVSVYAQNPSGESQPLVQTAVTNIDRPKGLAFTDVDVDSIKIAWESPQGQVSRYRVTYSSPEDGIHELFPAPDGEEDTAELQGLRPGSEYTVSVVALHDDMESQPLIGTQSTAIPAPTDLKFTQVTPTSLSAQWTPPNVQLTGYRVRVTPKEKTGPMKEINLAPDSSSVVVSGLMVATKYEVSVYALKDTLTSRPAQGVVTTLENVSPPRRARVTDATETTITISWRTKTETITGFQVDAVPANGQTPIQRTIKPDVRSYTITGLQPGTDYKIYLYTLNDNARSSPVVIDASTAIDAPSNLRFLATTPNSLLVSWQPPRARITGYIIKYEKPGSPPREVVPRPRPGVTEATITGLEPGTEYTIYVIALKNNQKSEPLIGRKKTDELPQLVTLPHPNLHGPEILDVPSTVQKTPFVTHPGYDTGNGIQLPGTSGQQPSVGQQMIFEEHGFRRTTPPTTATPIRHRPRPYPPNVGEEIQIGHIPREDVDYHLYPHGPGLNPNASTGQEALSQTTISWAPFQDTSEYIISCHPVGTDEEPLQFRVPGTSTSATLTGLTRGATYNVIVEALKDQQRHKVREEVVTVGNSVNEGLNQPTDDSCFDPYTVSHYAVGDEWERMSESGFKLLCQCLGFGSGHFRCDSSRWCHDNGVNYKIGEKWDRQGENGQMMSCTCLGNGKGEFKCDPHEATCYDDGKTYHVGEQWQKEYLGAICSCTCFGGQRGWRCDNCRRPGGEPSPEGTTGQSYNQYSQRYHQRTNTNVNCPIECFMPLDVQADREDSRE

[2] = system: HEK-Blue™ IL-2 cells; test: HEK-Blue IL2 reporter assay (SEAP, OD630); format: cell-based; conditions: Table 5C
Procedure: Recombinant MMP9 and/or MMP2 (R&D Systems) was first activated with p-aminophenylmercuric acetate and this activated protease or equivalent amount of activating solution without the protease was used to digest or mock digest the fusion protein for 1 hr, 2 hr, 4 hr and overnight (18-22 hr) at 37 C. Cleavage assays are set up in TCNB buffer: 50 mM Tris, 10 mM CaCl2), 150 mM NaCl, 0.05% Brij-35 (w/v), pH 7.5. Digested protein was aliquoted and stored at −80° C. prior to testing. Aliquots of digests were subsequently analyzed by SDS-PAGE followed by Western blotting to evaluate the extent of cleavage. Digests were also assessed in functional assays such as CTLL-2 proliferation and HEK-Blue Interleukin reporter assays. As shown in FIGS. 2A-E, essentially complete cleavage by MMP9 protease of the fusion proteins with functional site is seen after overnight incubation. In contrast, proteins containing a scrambled MMP cleavage site are not cut (FIG. 2E). HEK-Blue™ IL-2 cells are specifically designed to monitor the activation of the JAK-STAT pathway induced by IL-2. Indeed, stimulation with human or murine IL-2 triggers the JAK/STAT5 pathway and induces secreted embryonic alkaline phosphatase (SEAP) production. SEAP can be readily monitored when using QUANTI-Blue™, a SEAP detection medium. These cells respond to human and murine IL-2. For the HEK Blue assay, untreated and digested samples are titrated and added to 50 000 HEK Blue cells per well in 200 ul medium in a 96-well plate and incubated at 37C in 5% CO2 for 20-24 hr. The following day, levels of SEAP are measured by adding 20 uL of cell supernatant to QuantiBlue reagent, followed by 1-3 h incubation at 37C and reading absorbance at 630 nm. FIGS. 3C-J, 3Q-Y and Table 5B-5C show results obtained from IL2 fusion proteins tested in HEK Blue IL2 assay.

[3] = molecular target: heparin; test: IL-2 fusion protein plate binding assay to Heparin-BSA conjugate
Procedure: 96-well plates were coated with 25 ug/mL of Heparin-BSA conjugate (provided by Dr. Mueller, Boerhinger Ingelheim) or control BSA for 18-22 h at room temperature on shaker (350 rpm). After washing, wells are blocked with PBS-0.05% Tween 20/1% BSA for 90 min, then fusion proteins are titrated in 1% BSA/PBS-0.05% Tween 20 pH 7.5 and/or pH 6 and added for 2 hr at room temperature with shaking. After washing, an anti-mouse IL-2 biotin-labelled detection antibody (JES6-5H4, ThermoFisher) is added and binding is detected using Ultra Strepavidin HIRP (ThermoFisher). The plate was developed by adding the chromogenic tetramethylbenzidine substrate (Ultra TMB, ThermoFisher). The reaction is stopped by addition of 0.5M H2SO4 and the absorbance is read at 450-650 nm.

[4] = Drug and IL-2 levels in B16F10 tumor lysates by ELISA; format: in vivo, mice; conditions: for IL-2 levels in treated tumors compared to Construct B treated tumors: free IL-2 calculated by subtraction, 24 h after last dose
Procedure: (§1) We developed an ELISA assay to detect and quantify fusion proteins comprising IL-2 and IL-2Rα moieties. Wells of a 96-well plate are coated overnight with 100 uL of a rat anti-mouse IL-2 monoclonal antibody (JES6-1A12; ThermoFisher) at […] in PBS. After washing, wells are blocked with TBS/0.05% Tween 20/1% BSA, then fusion proteins and/or unknown biological samples are added for 1 hr at room temperature. After washing, an anti-mouse IL-2Rα biotin-labelled detection antibody (BAF2438, R&D systems) is added and binding is detected using Ultra Strepavidin HRP (ThermoFisher). The ELISA plate was developed by adding the chromogenic tetramethylbenzidine substrate (Ultra TMB, ThermoFisher). The reaction is stopped by addition of 0.5M H2SO4 and the absorbance is read at 450-650 nm.
We developed a second ELISA assay to detect and quantify mouse IL-2 and/or fusion proteins comprising an IL-2 moiety. Wells of a 96-well plate are coated overnight with 100 uL of a rat anti-mouse IL-2 monoclonal antibody (JES6-1A12; ThermoFisher) at […] in PBS. After washing, wells are blocked with TBS/0.05% Tween 20/1% BSA, then fusion proteins and/or unknown biological samples are added for 1 hr at room temperature. After washing, an anti-mouse IL-2 biotin-labelled detection antibody (JES6-5H4, ThermoFisher) is added and binding is detected using Ultra Strepavidin HRP (ThermoFisher). The ELISA plate was developed by adding the chromogenic tetramethylbenzidine substrate (Ultra TMB, ThermoFisher). The reaction is stopped by addition of 0.5M H2SO4 and the absorbance is read at 450-650 nm. This assay is able to simultaneously detect both free mouse IL-2 as well as mouse IL-2 in the context of pro-drug fusion proteins.
We quantified levels of full-length IL2-IL2Ra fusion proteins and IL-2 in tumor samples collected during pre-clinical efficacy studies comparing Construct B and retention linker IL-2 fusion drugs (see example 17).
Tumors (n=3 per group) were collected 24 h after the last dose injection, flash frozen and stored at −80C until further processing. Tumor lysates were generated using tissue extraction reagent (ThermoFisher) supplemented with protease and phosphatase inhibitors and standard techniques and protein concentrations were determined using the BCA assay (Pierce).
Lysates were tested with in-house ELISAs to measure full-length IL-2 fusion proteins (IL-2 capture/IL-2Rα detection) and IL-2 fusion proteins+free IL-2 (IL-2 capture/IL-2 detection). Free IL-2 levels in tumor were calculated by subtracting drug levels from the drug+IL-2 data set. Results were normalized to 1 mg of tumor lysate and mean values are shown in FIG. 15C-H. Levels of Construct CC (20 mg/kg dose) in tumor are roughly 3-fold higher compared to Construct B levels, despite Construct B being dosed at 40 mg/kg (FIG. C). […] Likewise, IL-2 levels in Construct CC, Construct GG and Construct II treated tumors are elevated compared to Construct B treated tumors (FIG. 15E/H). This implies that next generation retention linker technology is able to retain in TME both full-length drug and released IL-2 post-cleavage.

[5] = Full-length drug levels in serum by ELISA; format: in vivo, mice; conditions: 24 hrs after dosing; for drug levels in serum relative to Construct B: 10 mg/kg cohort
Procedure: as §1
Additional serum samples collected at Day 17 (Construct B 20 mg/kg) and Day 21 (Construct Y 20 mg/kg), 4 days and 8 days respectively after the last IV injection, were assayed for full-length IL-2 fusion drug.

[6] = system: collagen; test: IL-2 fusion protein collagen-agarose pulldown (immunoblot quantitation); format: binding; conditions: for Bound: blot quantitation, collagen-agarose bound fraction; for Normalized: bound fraction relative to Construct B (fold); for Bound (% input): fraction bound to collagen-agarose; for binding to collagen-agarose beads vs control agarose beads: pulldown 18-22 h at 4C
Procedure: To test binding to collagen, a pulldown assay using agarose cross-linked to collagen (Sigma) was performed. IL-2 fusion proteins were incubated with collagen-agarose or control agarose beads for 18-22 h at 4C with gentle rotation in 1% BSA/PBS-0.05% Tween 20. After washing, proteins bound to the beads were eluted by resuspending beads in SDS sample buffer (Life Technologies). Bound proteins were then separated by SDS-PAGE on 4-12% BisTris gradient gel followed by immunoblotting with goat anti-mouse IL-2 polyclonal antibody (AF-402-NA; R&D systems). Donkey Anti-goat RP-conjugated antibody was used for detection (Jackson Immuno Research, West Grove, PA) and the blot was developed using the SuperSignal West Femto Maximum sensitivity detection reagent (ThermoFisher) following the manufacturer's recommendations.

[7] = system: B16F10 melanoma; test: In vivo efficacy of retention linker IL-2 drugs in B16F10 syngeneic model (Example 17); parameters: species or system mice; conditions: for TGI (%) D 15: 10 mg/kg IV Q3D, 5 doses; for TGI (%) D 20: 10 mg/kg, 7 days following the fifth dose
Procedure: (§2) In a first efficacy study, C57BL/6 mice were subcutaneously inoculated with B16F10 melanoma cells and when the average tumor volume reached on average 70-90 mm^3, animals were randomized into 5 groups based on tumor volumes (n=6 mice per treatment group). Mice were dosed intravenously every 3 days (Q3D) for a total of 5 doses according to following design:
as §2, with “second” for “first”, “study in the same model,” for “study,”
On Day 20, mice received an additional dose of drug, animals were sacrificed 24 hrs later and tissues and blood (processed to serum) were collected and stored at −80C for further testing. […] This is most likely due to the higher levels of both circulating drugs in serum and resident drug in TME, which can exert prolonged anti-tumor activity even after an extended dosing holiday.

[8] = pH-sensitive sequences derived from thrombospondin
[9] = cleaved with MMP9, read-out: +MMP EC50

Molecule: 655 (KRFKQDGGWSHWSP) [Construct 655]
affinity (Binds to Fibronectin) [1, 8]: derived from thrombospondin (medium affinity)

Molecule: 680 (QFGGHNSVDFEEDT) [Construct 680]
affinity (Binds to Fibronectin) ([1]; FAB D3 fragments): non-binding control

Molecule: 654 (KRFKQDGGWSHWSPWSS) [Construct 654]
affinity (Binds to Fibronectin) [1, 8]: derived from thrombospondin (low affinity)

Molecule: 656 (GGWSHWSPWSS) [Construct 656]
affinity (Binds to Fibronectin) [1, 8]: derived from thrombospondin (medium affinity)

EC50 ([3]; acidic pH): 10 nM
B1: Construct CC: SEQ ID NO 813: m IL2-2x(GHHPH)-MMPcs1-2x(G4S)-mIL2Ra(1-215)-mu IgG1 Fc (protein)
chain: APTSSSTSSSTAEAQQQQQQQQQQQQHLEQLLMDLQELLSRMENYRNLKLPRMLTFKFYLPKQATELKDLQCLEDELGPLRHVLDLTQSKSFQLEDAENFISNIRVTVVKLKGSDNTFECQFDDESATVVDFLRRWIAFCQSIISTSPQGHHPHGHHPHGPLGVRGGGGGSGGGGSELCLYDPPEVPNATFKALSYKNGTILNCECKRGFRRLKELVYMRCLGNSWSSNCQCTSNSHDKSRKQVTAQLEHQKEQQTTTDMQKPTQSMHQENLTGHCREPPPWKHEDSKRIYHFVEGQSVHYECIPGYKALQRGPAISICKMKCGKTGWTQPQLTCVDEREHHRFLASEESQGSRNSSPESETSCPITTTDFPQPTETTAMTETFVLTMEYKGCKPCICTVPEVSSVFIFPPKPKDVLTITLTPKVTCVVVDISKDDPEVQFSWFVDDVEVHTAQTQPREEQFNSTFRSVSELPIMHQDWLNGKEFKCRVNSAAFPAPIEKTISKTKGRPKAPQVYTIPPPKEQMAKDKVSLTCMITDFFPEDITVEWQWNGQPAENYKNTQPIMDTDGSYFVYSKLNVQKSNWEAGNTFTCSVLHEGLHNHHTEKSLSHSPGK
EC50 [2, 9]: 0.013 nM | EC50 ([2]; uncleaved, read-out: −MMP EC50): 0.66 nM | heparin binding (qualitative) ([3]; pH 6 vs pH 7.5, plate assay): bind heparin in dose-dependent manner and with higher affinity than Construct B; also recorded: preferentially binds heparin at acidic pH | drug levels in tumor relative to Construct B (40 mg/kg) ([4]; Construct CC 20 mg/kg, tumors 24 h after last dose): roughly 3 fold | IL-2 levels in treated tumors compared to Construct B treated tumors [4]: elevated | circulating drug levels compared with Construct B (40 mg/kg) ([5]; Construct CC 20 mg/kg): roughly similar

B2: Construct II: SEQ ID NO 819: m IL2-LHERHLNNN-MMPcs1-2x(G4S)-mIL2Ra(1-215)-mu IgG1 Fc (protein)
chain: B1 chain with G150S, H151L, P153E, H154R, G155H, H156L, H157N, P158N, H159N
EC50 [2, 9]: 0.009 nM | EC50 ([2]; uncleaved, read-out: −MMP EC50): 0.489 nM | Bound [6]: 2277 | Normalized [6]: 1.4 | Bound (% input) [6]: 0.4% | binding to collagen-agarose beads vs control agarose beads [6]: specifically bound by collagen-agarose beads | IL-2 levels in treated tumors compared to Construct B treated tumors [4]: elevated | drug levels in serum relative to Construct B [5]: ~3 fold | TGI (%) D 15 [7]: 57% and 57.68% | TGI (%) D 20 [7]: 68.52%

B3: Construct GG: SEQ ID NO 817: m IL2-SGG-KLWVLPK-MMPcs1-2x(G4S)-mIL2Ra(1-215)-mu IgG1 Fc (protein)
chain: B1 chain with G150S, H151G, H152G, P153K, H154L, G155W, H156V, H157L, H159K
EC50 [2, 9]: 0.0072 nM | EC50 ([2]; uncleaved, read-out: −MMP EC50): 0.14 nM | Bound [6]: 5191 | Normalized [6]: 2.5 | Bound (% input) [6]: 0.7% | binding to collagen-agarose beads vs control agarose beads [6]: specifically bound by collagen-agarose beads | drug level in tumor, comparison in 10 mg/kg dosing cohort ([4]; 10 mg/kg, tumors 24 h after last dose): highest levels | IL-2 levels in treated tumors compared to Construct B treated tumors [4]: elevated | drug levels in serum relative to Construct B [5]: roughly 5 fold | TGI (%) D 15 [7]: 57% and 57.18% | TGI (%) D 20 [7]: 64.70%
